Test results as given in patent publication US20200262920A1 (AMPHIVENA THERAPEUTICS, published 2020).
Numbering of substitutions follows the chain as printed.

B1: CD33/CD3 2×2 T-cell engager 05 (bispecific antibody)
chain: DIQMTQSPSSLSASVGDRVTITCRSSTGAVTTSNYANWVQQKPGKAPKGLIGGTNKRAPGVPARFSGSGSGTDFTLTISSLQPEDFATYYCALWYSNLWVFGQGTKVEIKGGSGGSQVQLVQSGAEVKKPGASVKVSCKASGYTFTSYDINWVRQAPGQGLEWMGWMNPNSGNTGFAQKFQGRVTMTRDTSTSTVYMELSSLRSEDTAVYYCARDRANTDYSFGMDVWGQGTLVTVSSGGSGGQSVLTQPPSASGTPGQRVTISCSGSRSNIGSNTVNWYQQLPGTAPKLLIYGNNQRPSGVPDRFSGSKSGTSASLAISGLQSEDEADYYCATWDDSLIGWVFGGGTKLTVLGGSGGSEVQLVESGGGLVQPGGSLRLSCAASGFTFSTYAMNWVRQAPGKGLEWVGRIRSKYNNYATYYADSVKDRFTISRDDSKNSLYLQMNSLKTEDTAVYYCARHGNFGNSYVSWFAYWGQGTLVTVSSAAAGSHHHHHH
notes: Non-covalent homodimer; also called 2×2 T-cell engager 5
B2: CD33/CD3 2×2 T-cell engager 06 (bispecific antibody)
chain: B1 chain with F223L
notes: Non-covalent homodimer; also called 2×2 T-cell engager 6
B3: CD33/CD3 2×2 T-cell engager 11 (bispecific antibody)
chain: DIQMTQSPSSLSASVGDRVTITCRSSTGAVTTSNYANWVQQKPGKAPKGLIGGTNKRAPGVPSRFSGSLIGDKATLTISSLQPEDFATYYCALWYSNLWVFGQGTKVEIKGGSGGSQVQLVQSGAEVKKPGASVKVSCKASGYTFTSYDINWVRQAPGQGLEWMGWMNPNSGNTGFAQKFQGRVTMTRDTSTSTVYMELSSLRSEDTAVYYCARDRANTDYSLGMDVWGQGTLVTVSSGGSGQSVLTQPPSASGTPGQRVTISCSGSRSNIGSNTVNWYQQLPGTAPKLLIYGNNQRPSGVPDRFSGSKSGTSASLAISGLQSEDEADYYCATWDDSLIGWVFGGGTKLTVLGGSGGSEVQLVESGGGLVQPGGSLRLSCAASGFTFSTYAMNWVRQAPGKGLEWVGRIRSKYNNYATYYADSVKDRFTISRDDSKNSLYLQMNSLKTEDTAVYYCARHGNFGNSYVSWFAYWGQGTLVTVSSAAAGSHHHHHH
notes: Non-covalent homodimer
B4: CD33/CD3 2×2 T-cell engager 15 (bispecific antibody)
chain: B3 chain with G49A, L223F, W469Y
notes: Non-covalent homodimer
B5: CD33/CD3 2×2 T-cell engager 13 (bispecific antibody)
chain: B3 chain with D72T, K73D, A74F, N218V, S222Y, L223Y
notes: Non-covalent homodimer

molecular target: T1, human CD33 (human, UniProt P20138 18-364); experiment: cell-based or functional assay
T1 sequence (P20138 18-364): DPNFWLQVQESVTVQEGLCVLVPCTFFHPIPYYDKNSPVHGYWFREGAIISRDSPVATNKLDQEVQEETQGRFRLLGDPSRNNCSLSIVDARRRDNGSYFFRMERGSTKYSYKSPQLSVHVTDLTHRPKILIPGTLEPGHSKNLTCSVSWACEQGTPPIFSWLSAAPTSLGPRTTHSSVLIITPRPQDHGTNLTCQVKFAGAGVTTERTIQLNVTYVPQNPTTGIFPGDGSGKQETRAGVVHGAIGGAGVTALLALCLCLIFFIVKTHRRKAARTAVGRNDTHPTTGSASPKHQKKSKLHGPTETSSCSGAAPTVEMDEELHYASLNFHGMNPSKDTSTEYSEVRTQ

Binder	EC50 on HL-60 (cytotoxicity)
B1	0.0027 nM
B2	0.0016 nM
B3	0.0059 nM
B4	0.0018 nM
B5	0.0011 nM

molecular target: T2, human CD3 (human, UniProt P07766 23-207; P09693 23-182; P04234 22-171; P20963 22-164); experiment: flow cytometry, human T-cells
T2 construct: whole, on cells; the description names the epsilon chain only 'in certain instances'; also called hu CD3; CD3 on T cells
T2 sequence (P07766 23-207, chain 1 of 4): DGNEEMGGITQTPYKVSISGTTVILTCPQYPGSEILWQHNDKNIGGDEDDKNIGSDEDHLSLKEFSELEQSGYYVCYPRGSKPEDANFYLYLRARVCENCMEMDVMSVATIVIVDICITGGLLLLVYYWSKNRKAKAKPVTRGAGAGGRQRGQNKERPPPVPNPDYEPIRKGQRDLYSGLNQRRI
T2 sequence (P09693 23-182, chain 2 of 4): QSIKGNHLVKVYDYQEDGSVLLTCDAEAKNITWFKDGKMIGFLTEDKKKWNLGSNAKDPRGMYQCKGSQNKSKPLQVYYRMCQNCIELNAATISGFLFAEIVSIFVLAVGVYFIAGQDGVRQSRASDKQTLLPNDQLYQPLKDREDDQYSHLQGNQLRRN
T2 sequence (P04234 22-171, chain 3 of 4): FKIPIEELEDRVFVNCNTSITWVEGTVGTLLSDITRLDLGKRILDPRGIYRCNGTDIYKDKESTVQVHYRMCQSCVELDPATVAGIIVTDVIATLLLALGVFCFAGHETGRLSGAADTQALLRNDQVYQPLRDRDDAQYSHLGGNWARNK
T2 sequence (P20963 22-164, chain 4 of 4): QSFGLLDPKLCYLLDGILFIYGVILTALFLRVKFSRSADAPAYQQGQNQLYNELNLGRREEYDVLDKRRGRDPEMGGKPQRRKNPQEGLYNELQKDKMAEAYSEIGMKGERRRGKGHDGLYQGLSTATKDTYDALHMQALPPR

Kd	Binder
69.5 nM	B1
86.3 nM	B2
2.6 nM	B3
1.3 nM	B4
55.7 nM	B5

molecular target: T1, human CD33; experiment: flow cytometry titration, HL-60 cells
Description: (§1) Cells were incubated with 100 μL of serial dilutions of CD33/CD3 2×2 T-cell engagers. After washing three times with FACS buffer the cells were incubated with 0.1 mL of 10 μg/mL mouse monoclonal anti-His antibody in the same buffer for 45 min on ice. After a second washing cycle, the cells were incubated with 0.1 mL of 15 μg/mL FITC-conjugated goat anti-mouse IgG antibodies under the same conditions as before. As a control, cells were incubated with the anti-His IgG followed by the FITC-conjugated goat anti-mouse IgG antibodies without anti-CD33 2×2 T-cell engagers. The cells were then washed again and resuspended in 0.2 mL of FACS buffer containing 2 μg/mL propidium iodide (PI) in order to exclude dead cells. The fluorescence of 1×10⁴ living cells was measured using a Beckman-Coulter FC500 MPL flow cytometer using the MXP software (Beckman-Coulter, Krefeld, Germany) or a Millipore Guava EasyCyte flow cytometer using the Incyte software (Merck Millipore, Schwalbach, Germany). Mean fluorescence intensities of the cell samples were calculated using CXP software (Beckman-Coulter, Krefeld, Germany) or Incyte software (Merck Millipore, Schwalbach, Germany). After subtracting the fluorescence intensity values of the cells stained with the secondary and tertiary reagents alone the values were used for calculation of the KD values with the equation for one-site binding (hyperbola) of the GraphPad Prism (version 6.00 for Windows, GraphPad Software, La Jolla Calif. USA). […]

Kd	Binder
1 nM	B1
0.4 nM	B2
0.3 nM	B3
0.4 nM	B4
0.2 nM	B5

molecular target: T1, human CD33; experiment: flow cytometry titration, U-937 cells
Description: as §1

Kd	Binder
6.2 nM	B1
1.6 nM	B2
0.6 nM	B3
0.9 nM	B4
0.5 nM	B5

molecular target: T2, human CD3; experiment: cell-based or functional assay

CD25 Induction EC50	CD69 Induction EC50	T cell Proliferation in PBMC EC50	Binder
0.116 nM	0.074 nM	0.074 nM	B1
0.039 nM	0.021 nM	0.048 nM	B2
0.011 nM	0.005 nM	0.006 nM	B3
0.006 nM	0.007 nM	0.007 nM	B4
0.03 nM	0.022 nM	0.023 nM	B5

molecular target: T2, human CD3; experiment: flow cytometry titration, T cells (human CD3+)

Kd	Binder
69.5 nM	B1
86.3 nM	B2
2.6 nM	B3
1.3 nM	B4
55.7 nM	B5

molecular target: T1, human CD33; experiment: flow cytometry titration, KG-1 cells
Description: as §1

Kd	Binder
1.2 nM	B1
0.5 nM	B2
0.5 nM	B3
0.3 nM	B4
0.3 nM	B5

molecular target: T1, human CD33; experiment: flow cytometry, HL-60 cells

Kd	Binder
1 nM	B1
0.4 nM	B2
0.3 nM	B3
0.4 nM	B4
0.2 nM	B5
